Laboratory results published in patent US20210214440A1 (Janssen / Centocor, published 2021).
Numbering of substitutions follows the chain as printed.

B1: CD8B356 (antibody, human IgG1, kappa, V domains shown)
VH: DVQLQESGPGLVKPSQSLSLTCSVTGYSITSGYYWNWIRQFPGNKLEWMGYISYDGSNNYNPSLKNRISITRDTSKNQFFLKLNSVTTEDTATYYCVRNHGDAMDYWGQGTSVTVSS
VL: DIVLTQSQKFMSTTVGDRVSITCKASQNVGTAVAWYQQKPGQSPKLLIYSASYRYTGVPDRFTGSGSGTHFTLTISNMQSEDLADYFCQQYSSYLTFGSGTKLEIKR
notes: full-length human IgG1, kappa
B2: CD8B269 (antibody, human IgG1, kappa, V domains shown)
VH: B1 VH with Y106H, S112T, V113L
VL: DIVMTQSQKFMSTSVGDRVRVTCKASQNVGTDVAWYQQKPGQSPKALIYSASYRYSGVPDRFTGSGSGTDFTLTISDVQSEDLAEYFCQQYKSYPLTFGAGTKLELKR
notes: full-length human IgG1, kappa
B3: CD8B319 (antibody, human IgG1, kappa, V domains shown)
VH: QVQLKESGPELKKPGETVKISCKASGYSFTAYYMHWVKQSPEKSLEWIGEINPSAGGTTYNQKFKAKATLTVDKSSSTAFIQLKSLTSEDSAVYYCARWTNPFDYWGQGTTLTVSS
VL: B1 VL with L4M, M78I, S92N, S93N
notes: full-length human IgG1, kappa
B4: CD8B240 (antibody, human IgG1, kappa)
heavy: not shown
light: DIVMTQSPATLSVTPGDRVSLSCRASQSISDFLHWYQQKSHESPRLLIKYASQSISGIPSRFSGSGSGSDFTLTINSVEPEDVGVYYCQNGHSFPYTFGSGTKLEIKRTVAAPSVFIFPPSDEQLKSGTASVVCLLNNFYPREAKVQWKVDNALQSGNSQESVTEQDSKDSTYSLSSTLTLSKADYEKHKVYACEVTHQGLSSPVTKSFNRGEC
notes: full-length human IgG1, kappa
B5: CD8B191 (antibody, human IgG1, kappa)
heavy: not shown
light: B4 light with M4L
notes: full-length human IgG1, kappa
B6: CD8B310 (antibody, human IgG1, kappa, V domains shown)
VH: QVQLKESGPGLVAPSQSLSITCTVSGFSLTNYAVHWVRQSPGKGLEWLGVIWTDGSTDYNAGFISRLSISKDNSKSQVFFKMNSLQADDTAIYYCARNNGYFPAFFAYWGQGTTVTVSS
VL: DVLMTQTPLSLPVSLGDQASISCRSSQTIVHSNGNTYLEWYLQKPGQSPKLLMYKVSNRFSGVPDRFGGSGSGTDFTLKISRVEAEDLGVYYCFQGSHAPFTFGSGTKLEIKR
notes: full-length human IgG1, kappa
B7: CD8B213 (antibody, human IgG1, kappa, V domains shown)
VH: EVQLQQSGPELVKPGDSMKMSCKASGYIFTDYYMDWVKQSHGKSLEWIGYIYPNNGITSYNQKFKGRATLTIDKSSSTAYMELHSLTSEDSAVYYCARSIYYDHGGGFPYWGQGTSVTVSS
VL: DIVLTQSQKFMSTSVGDRVSVTCKASQNVDKYVAWYQQKPGQSPKALIYSASYRYSGVPDRFTGSGSGTDFTLTISNVQSEDLAEYFCQQYNTYPSFGSGTKLEMKR
notes: full-length human IgG1, kappa
B8: CD8B361 (antibody, human IgG1, kappa, V domains shown)
VH: EVQLQQSGPELVKPGNSVKMSCKASGYTFTDYYMDWVKQSHGTSLEWIGYIYPNNGDTRYNQKFKDKATLTVDKSSSTAYMELHSLTSEDSAVFYCARSIYYDHGGGFPYWGQGTLVTVSA
VL: B7 VL with L4M, D30G, K31T, S76N, F87L, T93S, S96T, S99G, K102R, M105I
notes: full-length human IgG1, kappa
B9: CD8B303 (antibody, human IgG1, kappa, V domains shown)
VH: QVQLKESGPGLVAPSQSLSITCTVSGFSLSIYSIHWVRQPPGKGLEWLGMIWGGGSTDYNSTLNSRLSIIKDNSKSQVFLKMNSLQTDDTAMYYCARNPHHYGGSTGAMDYWGQGTTVTVSS
VL: DVQMIQSPSSLSASLGGTVTITCKASQDIKKYMAWYQHKPGKGPRLLIHYTSSLQPGIPSRFSGSGSGRDYYFSISNLEPEDIATYFCLQYDNLFTFGSGTKLELKR
notes: full-length human IgG1, kappa
B10: CD8B268 (antibody, human IgG1, kappa, V domains shown)
VH: QVQLQQSGAELVKPGASVKLSCKASGYTFTVYTIHWVKQRSGQGLEWIGWFYPGSGNIKYNEKFKDKATLTADKSSHTVYMELSRLTSEDSAVYFCARHEDNHYYDGNSWFAYWGQGTLVTVSA
VL: DIQMTQSPASLSASVGQTVTITCRASGNIHNYLAWFQQKQGKSPQLLVYNAKTLADGVPSRFSGSGSGTQYSLKINSLQTEDFGNYYCQHFWNTPYTFGGGTKLEIKR
notes: full-length human IgG1, kappa
B11: CD8B350 (antibody, human IgG1, kappa, V domains shown)
VH: EVQLQQSGAELAKPGTSVKMSCKASGYTFAAYWINWLKQRPGQGLEWIGSINPSNGYTEYSQKFKDKAILTADKSSSTAYMQLSSLTSEDSAVYYCSRSGLYYTNHLAWCPYWGQGTTVTVSS
VL: B10 VL with Q3V, Q17E, F36Y, L46V, K52E, G57S, Y71F, T80P, T94S, Y96L
notes: full-length human IgG1, kappa
B12: CD8B273 (antibody, human IgG1, kappa, V domains shown)
VH: B10 VH with V31E, S55T, N57S, R85K
VL: B10 VL with Q17E, T80A, N85S, N93S, G100S
notes: full-length human IgG1, kappa
B13: CD8B251 (antibody, human IgG1, kappa, V domains shown)
VH: QVQLKGSGPGLVQPSQSLSITCTVSGFSLTTYAVHWVRQSPGKGLEWLGVIWSGGSTDYNAAFISRLSISKDNSKSQVFFKMNSLQADDTAIYYCARHSYYHYNAMDNWGQGTSVTVSS
VL: DIKMTQSQKFMSTTVGDRVSITCKASQNVGTAVAWYQQKPGQSPKLLIYSASNRYTGVPDRFTGSGSGTDFTLTISNMQSEDLADYFCQQYSSYPFTFGSGTKLEIKR
notes: full-length human IgG1, kappa
B14: CD8B324 (antibody, human IgG1, kappa, V domains shown)
VH: QVQLQQPGADLVKPGASVKLSCKASGYTSTSHWIHWVKQRPGQGLEWIGNIYPGSSSTNYNEKFKRMATLTVDTSSSTVYMVLSSLTSDDSAVYYCARHSPGHRDYAMDYWGLGTSVTVSS
VL: B13 VL with K3V, S12P, Y49A, N77T, S93T, F96L, S100A, I106M
notes: full-length human IgG1, kappa
B15: CD8B312 (antibody, human IgG1, kappa, V domains shown)
VH: QVQLQQPGADLVKPGASVKLSCKASGYTFTSFWMHWVKQRPGQGLEWIGNVDPSDSQTHYNQKFKDKATLTVDKSSNTAYMQLSSLTSEDSAVYYCARSTYYRYDGPFTYWGQGTTVTVSS
VL: DIVLTQSPATLSVTPGDSVSLSCRASQSINNNLHWYQQKSHESPRLLIKYTSQSISGIPSRFSGSGSGPDFTLSINSVETEDFGMYFCQQSNSWPLTFGGGTKLEIKR
notes: full-length human IgG1, kappa
B16: CD8B364 (antibody, human IgG1, kappa, V domains shown)
VH: QVQLQQPGAELVKPGASVKLSCKASGYTFTSYWMHWVNRRPGQGLEWIGEINPSNGDSYYNEKFKRKATLTVDISSSTAYMQLSSLTSEDSAVYYCTRSMYYDGRAGAYWGQGTTVTVSS
VL: DIVLTQSPASLSVATGEKVTIRCITSTDIDDDMNWYQQKPGEPPKLLISEGNTLRPGVPSRFSSSGYGTDFVFTIENTLSEDVADYYCLQSDNMPLTFGAGTKLELKR
notes: full-length human IgG1, kappa
B17: CD8B200 (antibody, human IgG1, kappa, V domains shown)
VH: EVQLQQSGAELVKPGASVKLSCKASGYTFTNYWIHWVKQRPGQGLEWIGNIDPSDSETHYNQKFKDKATLTVDKSSSTAYMQLISLTSEDSAVYYCASGLTGTGYYWGQGTTLTVSS
VL: DIQMTQTTSSLSASLGDRVTITCRASQDISPYLNWYQQKPEGTIKLLIYYTSKLHSGVPSRFSGSGSGTDYSLTISNLEQEDIATYFCQQDNTLPYTFGSGTKLELKR
notes: full-length human IgG1, kappa
B18: CD8B246 (antibody, human IgG1, kappa, V domains shown)
VH: QVQLKESGPGILKPSQTLSLTCSFSGFSLSTSGMNVGWIRQPSGKGLEWLAHIWWDDDKYYNPSLKSQLTISKDTSRNQVFLKITSVDTADTATYYCARRGNYGNYEFAYWGQGTTLTVSS
VL: B17 VL with T22S, S30R, P31N, E41D, I44V, Y50H, K53R, D91G, Y96W, S100A
notes: full-length human IgG1, kappa
B19: CD8B270 (antibody, human IgG1, kappa, V domains shown)
VH: B17 VH with E1Q, S7P, K19M, I34M, I84S
VL: B17 VL with S30R, Y50F
notes: full-length human IgG1, kappa
B20: CD8B304 (antibody, human IgG1, kappa, V domains shown)
VH: B18 VH with Q3T, L117V
VL: DIQMTQTTSSLSASLGDRVTISCRASQDIRNYLNWYQQKPDGTVKLLIYHTSRLHSGVPSRFSGSGSGTDYSLTISNLDQEDIATYFCQQGNTLPWTFGAGTKLELKR
notes: full-length human IgG1, kappa
B21: CD8B182 (antibody, human IgG1, kappa, V domains shown)
VH: EVQLQQSGAALAKPGTSVKMSCKASGYTFTSYWMNWVRQRPGQGLEWIGAVNPTNYYTEYIQKFKDKAILTADKSSSTAYMHLSGLTSEDSAVYYCARSGLYNTNHLAWFAYWGQGTTVTVSS
VL: DIKMTQSPASLSASVGETVTITCRASENIHNYLAWYQQIQGKSPQLLVYNAKTLANGVPSRFSGSASGTQFSLTINSLQPEDFGSYYCQHFWTTPLTFGAGTKLELKR
notes: full-length human IgG1, kappa
B22: CD8B347 (antibody, human IgG1, kappa)
heavy: not shown
light: DIQMTQSPASLSASVGETVTITCRASGNIHNYLAWYQQKQGKSPQLLVFNAETLADGVPSRFSGSGSGTQFSLKINSLQPEDFGTYYCQHFWNNPLTLGAGTKLELKRTVAAPSVFIFPPSDEQLKSGTASVVCLLNNFYPREAKVQWKVDNALQSGNSQESVTEQDSKDSTYSLSSTLTLSKADYEKHKVYACEVTHQGLSSPVTKSFNRGEC
notes: full-length human IgG1, kappa
B23: CD8B271 (antibody, human IgG1, kappa, V domains shown)
VH: DVQLQESGPGLVAPSQSLSITCTVSGFSLSIYSIHWVRQPPGKGLEWLGMIWGGGDTDYNSALKSRLSISKDNSESQVFLKMNSLQTDDTAMYYCARNPHYYGGTYEYFDVWGTGTTVTVSS
VL: DIQMTQTTSSLSASLGDRVTISCSASQGISNYLNWYQQKPDGTVKLLIYDTSILYSGVPSRFSGSGSGTDYSLTISNLEPEDVATYYCQQYSNLPYTFGSGTKLEIKR
notes: full-length human IgG1, kappa

target: T1, human CD8 on human pan T cells (human, UniProt P01732 22-235; P10966 22-210); test: flow cytometry, 20 nM mAb on human pan T cells
T1 construct: Native CD8 on the CD4-negative population of human pan T cells
T1 sequence (P01732 22-235, chain 1 of 2): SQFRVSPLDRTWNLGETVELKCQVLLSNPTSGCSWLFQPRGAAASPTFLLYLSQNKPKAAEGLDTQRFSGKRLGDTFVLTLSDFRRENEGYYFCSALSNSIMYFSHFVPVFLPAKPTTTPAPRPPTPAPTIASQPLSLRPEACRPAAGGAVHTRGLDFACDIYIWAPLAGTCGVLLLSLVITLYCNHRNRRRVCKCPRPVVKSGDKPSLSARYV
T1 sequence (P10966 22-210, chain 2 of 2): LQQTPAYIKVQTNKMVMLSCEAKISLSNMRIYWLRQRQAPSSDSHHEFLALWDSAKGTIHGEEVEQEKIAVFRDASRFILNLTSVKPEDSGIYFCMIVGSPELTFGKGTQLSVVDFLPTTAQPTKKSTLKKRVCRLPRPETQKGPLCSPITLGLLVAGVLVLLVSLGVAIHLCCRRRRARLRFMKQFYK
Procedure: Secondary antibodies were A647-conjugated goat anti human IgG Fc antibody at 2 μg/mL, and A488-conjugated mouse anti-human CD4 at 1 μg/mL in staining buffer. Live cells were also gated based on OKT8 control mAb binding. Percent CD8 positive population was calculated by percentage of CD8-positive cell count/live cell count.

Cell Binding to Human PanT Signal/Background (of CD4 negative population)	Binder
777	B1
26	B2
16	B3
1310	B4
2440	B5
29	B6
827	B7
1050	B8
1180	B9
1170	B10
537	B11
938	B12
37	B13
1610	B14
1090	B15
1560	B16
1990	B17
1110	B18
2500	B19
923	B20
1490	B21
1200	B22
911	B23
